Assay results taken from US20210206865A1 (Regeneron, published 2021).
Changes are numbered by the printed parent chain.

T1: human BCMA on the surface of cell lines (NCI-H929, MM.1S, OPM-2, RPMI-8226, Daudi, Raji, MOLP-8, U266) (human, UniProt Q02223 1-184)
T1 construct: Endogenous BCMA of human myeloma and lymphoma cell lines; also called TNFRSF17; CD269
T1 sequence: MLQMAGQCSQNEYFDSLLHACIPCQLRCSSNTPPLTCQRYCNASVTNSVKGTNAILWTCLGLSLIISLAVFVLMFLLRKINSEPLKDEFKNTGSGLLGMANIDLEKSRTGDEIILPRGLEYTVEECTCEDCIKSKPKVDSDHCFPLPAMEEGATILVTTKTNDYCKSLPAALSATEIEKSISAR

B1: bsAb25441D bispecific antibody (REGN5458), anti-BCMA x anti-CD3 (bispecific antibody, human IgG4 S228P, kappa)
heavy 1: EVQLVESGGGLVQPGGSLRLSCAASGFTFSNFWMTWVRQAPGKGLEWVANMNQDGSEKYYVDSVKGRFTISRDNAKSSLYLQMNSLRAEDTAVYYCARDREYCISTSCYDDFDYWGQGTLVTVSSASTKGPSVFPLAPCSRSTSESTAALGCLVKDYFPEPVTVSWNSGALTSGVHTFPAVLQSSGLYSLSSVVTVPSSSLGTKTYTCNVDHKPSNTKVDKRVESKYGPPCPPCPAPPVAGPSVFLFPPKPKDTLMISRTPEVTCVVVDVSQEDPEVQFNWYVDGVEVHNAKTKPREEQFNSTYRVVSVLTVLHQDWLNGKEYKCKVSNKGLPSSIEKTISKAKGQPREPQVYTLPPSQEEMTKNQVSLTCLVKGFYPSDIAVEWESNGQPENNYKTTPPVLDSDGSFFLYSRLTVDKSRWQEGNVFSCSVMHEALHNHYTQKSLSLSLGK
heavy 2: EVQLVESGGGLVQPGRSLRLSCAASGFTFDDYSMHWVRQAPGKGLEWVSGISWNSGSKGYADSVKGRFTISRDNAKNSLYLQMNSLRAEDTALYYCAKYGSGYGKFYHYGLDVWGQGTTVTVSSASTKGPSVFPLAPCSRSTSESTAALGCLVKDYFPEPVTVSWNSGALTSGVHTFPAVLQSSGLYSLSSVVTVPSSSLGTKTYTCNVDHKPSNTKVDKRVESKYGPPCPPCPAPPVAGPSVFLFPPKPKDTLMISRTPEVTCVVVDVSQEDPEVQFNWYVDGVEVHNAKTKPREEQFNSTYRVVSVLTVLHQDWLNGKEYKCKVSNKGLPSSIEKTISKAKGQPREPQVYTLPPSQEEMTKNQVSLTCLVKGFYPSDIAVEWESNGQPENNYKTTPPVLDSDGSFFLYSRLTVDKSRWQEGNVFSCSVMHEALHNRFTQKSLSLSPGK
light: not shown
notes: Anti-BCMA arm from mAb21581, anti-CD3 arm and common light chain from mAb7221G; also called bsAb25441D9; mAb25441D
B2: bsAb25442D bispecific antibody (REGN5459), anti-BCMA x anti-CD3 (bispecific antibody, human IgG4 S228P, kappa)
heavy 1: B1 heavy 1
heavy 2: B1 heavy 2 with K58I, H108Y, L111M
light: not shown
notes: Anti-BCMA arm from mAb21581, anti-CD3 arm and common light chain from mAb7221G20; also called mAb25442D; mAb25442D-A647

Columns and labels:
[1] = molecular target: T2, cynomolgus CD3 on cells (mfCD3 engineered Jurkat cells, primary cynomolgus CD8+ T cells) (cynomolgus, UniProt Q95LI5 22-198; Q95LI8 22-171); test: flow cytometry, primary cynomolgus CD8+ T cells, median EC50, n=1
T2 construct: whole, on cells; The engineered Jurkat line expresses cynomolgus CD3 epsilon and delta in place of the human versions (other chains remain human); primary cynomolgus T cells carry the whole cynomolgus complex; also called Jurkat-mfCD3; Mf (Cyno) CD3
Description: Flow cytometric analysis was utilized to determine binding of BCMA×CD3 bispecific antibodies to human and cynomolgus CD3 (Jurkat cells, mfCD3 engineered Jurkat cells, primary human CD8+ and cynomolgus CD8+ T cells). Briefly, 1e05 cells/well were incubated in the presence of FACS wash with block (PBS+1% filtered FBS+5% mouse serum) with a serial dilution of BCMA×CD3 and control antibodies for 30 minutes on ice. After incubation, the cells were washed twice with cold FACS wash (PBS+1% filtered FBS) and bound antibody was detected by incubating with Alexa647-conjugated anti-human secondary antibody on ice for an additional 30 minutes. Wells containing no antibody or secondary only were used as a control. For the detection of monkey and human T cells, a cocktail of human and cynomolgus cross-reactive antibodies to CD4, CD8 and CD16 was added to the anti-human secondary. After incubation, cells were washed, re-suspended in 200 μL cold PBS containing 1% filtered FBS and analyzed by flow cytometry on a BD FACS Canto II. Cells were gated by FSC-H by FSC-A to select singlet events, followed by side and forward scatters to select for live events. For monkey T cells, additional gating on CD8+/CD16-cells was performed.
EC50 values for FACS binding were calculated using 4-parameter non-linear regression analysis in Prism software.

[2] = molecular target: T1, human BCMA on the surface of cell lines …; test: flow cytometry, Alexa647 conjugate on Raji cells
Description: Cells were then washed and fixed for 25 mins at 4° C. using a 50% solution of BD Cytofix (BD, Cat #554655) diluted in PBS. […] After gating for live cells and single cells, the mean fluorescent intensity (MFI) was determined, and MFI values were plotted in Graphpad Prism using a four-parameter logistic equation over a 10-point response curve to calculate EC₅₀s. The zero condition for each dose-response curve is also included in the analysis as a continuation of the two-fold serial dilution and is represented as the lowest dose.

T2 sequence (Q95LI5 22-198, stated change not applied, chain 1 of 2): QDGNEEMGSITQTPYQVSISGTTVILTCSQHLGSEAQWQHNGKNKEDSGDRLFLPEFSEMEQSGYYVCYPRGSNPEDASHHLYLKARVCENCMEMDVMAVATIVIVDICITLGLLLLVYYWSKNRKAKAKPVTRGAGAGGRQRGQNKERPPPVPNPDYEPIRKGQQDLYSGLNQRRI
T2 sequence (Q95LI8 22-171, stated change not applied, chain 2 of 2): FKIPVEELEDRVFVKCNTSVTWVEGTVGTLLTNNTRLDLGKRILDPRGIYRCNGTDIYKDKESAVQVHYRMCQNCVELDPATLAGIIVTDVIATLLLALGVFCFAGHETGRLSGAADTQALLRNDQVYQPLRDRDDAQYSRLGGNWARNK

| Binder | EC50 [1] | S/N (ratio of mAb25442D-A647 MFI to Isotype-A647 MFI) [2] |
| --- | --- | --- |
| B1 | 46.6 nM |  |
| B2 |  | 2 |
